Here are results for 2 molecules from patent publication US20130130315A1 (ADVANCECOR, published 2013).

The target in experiment [1] is T1, CD133 protein (UniProt O43490 20-865, limits assumed).
T1 construct: whole, on cells; Presented on AC133/293 cells: paraformaldehyde-fixed in the cellular ELISA, unfixed in the phage FACS; also called CD133 antigen; AC133
T1 sequence (looked up): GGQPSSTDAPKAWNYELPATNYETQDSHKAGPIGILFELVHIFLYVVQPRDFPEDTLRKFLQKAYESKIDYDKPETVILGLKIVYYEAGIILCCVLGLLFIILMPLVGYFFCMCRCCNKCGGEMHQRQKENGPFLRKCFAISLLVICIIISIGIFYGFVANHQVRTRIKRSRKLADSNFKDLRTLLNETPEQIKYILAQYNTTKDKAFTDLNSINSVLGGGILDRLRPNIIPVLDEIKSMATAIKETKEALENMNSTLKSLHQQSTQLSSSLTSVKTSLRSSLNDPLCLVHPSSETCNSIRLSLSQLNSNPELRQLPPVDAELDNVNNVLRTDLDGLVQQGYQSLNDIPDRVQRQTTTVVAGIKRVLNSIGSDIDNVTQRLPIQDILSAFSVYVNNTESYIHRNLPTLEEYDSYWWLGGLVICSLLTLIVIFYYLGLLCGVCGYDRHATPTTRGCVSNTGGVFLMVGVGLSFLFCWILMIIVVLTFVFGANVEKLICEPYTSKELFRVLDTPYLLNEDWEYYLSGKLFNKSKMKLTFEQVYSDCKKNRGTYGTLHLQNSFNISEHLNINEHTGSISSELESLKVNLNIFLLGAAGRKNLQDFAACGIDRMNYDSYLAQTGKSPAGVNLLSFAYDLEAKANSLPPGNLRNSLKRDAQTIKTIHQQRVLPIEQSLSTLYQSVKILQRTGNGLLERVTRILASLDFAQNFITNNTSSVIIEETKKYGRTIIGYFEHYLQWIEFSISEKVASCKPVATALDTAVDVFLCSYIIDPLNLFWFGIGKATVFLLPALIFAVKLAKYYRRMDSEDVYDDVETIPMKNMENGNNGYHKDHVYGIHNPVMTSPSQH
The experiment in a line: cellular ELISA, threefold dilution series on fixed AC133/293 cells. Here is the method: (§1) 1×10⁵ cells in 0.2 ml of medium were added to each well and incubated o/n at 37° C., 5% CO₂ to allow cells to attach to the surface of the plate. The next day wells were washed once with 0.2 ml PBS and fixed with 0.1 ml 2% Paraformaldehyde (in PBS, pH 7.4) for 10-20 min at RT. Wells were washed with PBS-T (PBS+0.1% Tween-20) and blocked with either 1× RotiBlock or 3% milk in PBS-T for 1 hour at RT. After washing with PBS-T, serial dilutions of the respective antibody were added to the wells and incubated at RT for at least one hour while shaking. After washing with PBS-T, 0.1 ml of StrepMAb-Classic-HRP (1:10000 in PBS-T, lba BioTagnology, Göttingen, Germany) or of horseradish peroxidase linked anti-mouse IgG (1:10000 in PBS-T, Dianova, Hamburg, Germany) was added and incubated at RT for one hour with shaking. After washing with PBS-T, 0.1 ml of 1-Step Ultra TMB-ELISA substrate (Thermo Scientific, Braunschweig, Germany) was added and incubated until an adequate blue staining developed. To stop the reaction 0.1 ml 1 M H₂SO₄ was added to each well and absorbance at 450 nm and 595 nm as a reference was measured with an infinite F200 plate reader (TECAN, Männedorf, Switzerland). […] Signals were detected using an anti-mouse IgG-HRP antibody (1:10000 in PBS-T, Dianova, Hamburg, Germany). […]

Experiment [2] has as its target T1, CD133 protein. The experiment in a line: competitive cellular ELISA on fixed AC133/293 cells; competitor of 2 nM W6B3H10 mAb. Here is the method: as §1
In general terms: An ELISA detects its analyte on a solid surface through an enzyme-linked reagent.

B1: single chain antibody scFv-hl (scFv, not shown: large carriers)
scFv: EVQLQQSGPDLMKPGASVKISCKASGYSFTNYYVHWVKQSLDKSLEWIGYVDPFNGDFNYNQKFKDKATLTVDKSSSTAYMHLSSLTSEDSAVYYCARGGLDWYDTSYWYFDVWGAGTAVTVSSGGGGSGGGGSGGGGSDILMTQSPKSMSMSLGERVTLSCKASENVDTYVSWYQQKPEQSPKVLIYGASNRYTGVPDRFTGSGSATDFSLTISNVQAEDLADYHCGQSYRYPLTFGAGTKLELK
notes: Orientation heavy-light; Produced and purified solely from E. coli
For the molecule B1, the binding result with CD133 protein [1] is on record as “no binding”.

B2: single chain antibody scFv-lh (scFv, not shown: a dimerising Fc or GST)
scFv: DILMTQSPKSMSMSLGERVTLSCKASENVDTYVSWYQQKPEQSPKVLIYGASNRYTGVPDRFTGSGSATDFSLTISNVQAEDLADYHCGQSYRYPLTFGAGTKLELKGGGGSGGGGSGGGGSEVQLQQSGPDLMKPGASVKISCKASGYSFTNYYVHWVKQSLDKSLEWIGYVDPFNGDFNYNQKFKDKATLTVDKSSSTAYMHLSSLTSEDSAVYYCARGGLDWYDTSYWYFDVWGAGTAVTVSS
notes: Orientation light-heavy; Made in CHO cells and in E. coli (pET22b); also called mouse single chain antibody; parental mouse single chain antibody
B2: the IC50 (usually the concentration that gives 50% inhibition) with CD133 protein [2] is 3.1 nM.
